{"source": "the supplement of paper PMC10724198", "note": "± gives the standard deviation of the averaged measurements.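 Also: PSI is a weighted mean of sequencing reads over stability bins, variants kept only with over 10 reads, mCherry proximal and sfGFP distal, peptide attached via GGGS linker.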"}
{"test_system": "Saccharomyces cerevisiae", "experiment": "protein stability index of tFT-peptide fusion (C-terminal peptide) (PSI (0-1 scale)); higher = more stable (slower turnover)", "settings": "genetic background: das1 deletion; temperature: 30 C", "procedure": "(§1)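 MPS profiling in S. cerevisiae of the tFT-X12 degron library: putative degron peptides plus stable controls, 12 aa, fused to the C-terminus of a sfGFP-mCherry timer. Cells are FACS-sorted into 8 mCherry/sfGFP bins and deep-sequenced. PSI runs from 0 (unstable) to 1 (stable). Backgrounds are wild type, das1Δ and doa10Δ at 30 °C, and wild type, das1Δ, cdc34-1 and cdc53-1 at 37 °C; 2-3 technical replicates each.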"}
{"sequence": "VLVVWLGICFGY", "protein stability index": "0.191 ± 0.033"}
{"sequence": "VMYRGVRISWFL", "protein stability index": "0.424 ± 0.021"}
{"sequence": "VNILFCLFFLLV", "protein stability index": "0.419 ± 0.021"}
{"sequence": "VPQMLVSVCLSN", "protein stability index": "0.287 ± 0.032"}
{"sequence": "VPQQWFAETGRC", "protein stability index": "0.668 ± 0.026"}
{"sequence": "VRFPVFFIILFL", "protein stability index": "0.15 ± 0.029"}
{"sequence": "VRGSPNVMWKSQ", "protein stability index": "0.647 ± 0.028"}
{"sequence": "VRLHIAMWLRRC", "protein stability index": "0.316 ± 0.027"}
{"sequence": "VRNKFSYVLRLN", "protein stability index": "0.615 ± 0.016"}
{"sequence": "VRVLPFCWCIVR", "protein stability index": "0.188 ± 0.028"}
{"sequence": "VSIVLHSVPCGG", "protein stability index": "0.389 ± 0.019"}
{"sequence": "VSRVHIRIEGNH", "protein stability index": "0.622 ± 0.017"}
{"sequence": "VSVQVRCCPWVG", "protein stability index": "0.622 ± 0.011"}
{"sequence": "VVATLRCLRCSV", "protein stability index": "0.346 ± 0.035"}
{"sequence": "VVCFVVCGFYLG", "protein stability index": "0.261 ± 0.025"}
{"sequence": "VVCLLGIFYGFC", "protein stability index": "0.313 ± 0.031"}
{"sequence": "VVLCQVCVLWGW", "protein stability index": "0.167 ± 0.031"}
{"sequence": "VVLVLLCIGRLL", "protein stability index": "0.305 ± 0.033"}
{"sequence": "VVWIQRTVLSLI", "protein stability index": "0.505 ± 0.03"}
{"sequence": "VWFFGVVLGGLW", "protein stability index": "0.423 ± 0.031"}
{"sequence": "VWRLCFPFALVR", "protein stability index": "0.155 ± 0.025"}
{"sequence": "VWVISLCIGGVG", "protein stability index": "0.241 ± 0.026"}
{"sequence": "VYFRMGFMRVCV", "protein stability index": "0.416 ± 0.032"}
{"sequence": "VYFRYWLLVVVF", "protein stability index": "0.148 ± 0.034"}
{"sequence": "VYRILFWFLCFG", "protein stability index": "0.422 ± 0.026"}
{"sequence": "WDPEVVHRLWLN", "protein stability index": "0.662 ± 0.034"}
{"sequence": "WFCCAQRGVIVG", "protein stability index": "0.336 ± 0.024"}
{"sequence": "WFFRLFFLFFSG", "protein stability index": "0.4 ± 0.028"}
{"sequence": "WFLMVILYTVYG", "protein stability index": "0.182 ± 0.035"}
{"sequence": "WGCTGGRGRLVC", "protein stability index": "0.643 ± 0.029"}
{"sequence": "WGGIASLVASAA", "protein stability index": "0.236 ± 0.033"}
{"sequence": "WLFASCVFFWSS", "protein stability index": "0.386 ± 0.026"}
{"sequence": "WLSFAIECGMVW", "protein stability index": "0.252 ± 0.023"}
{"sequence": "WLTCSLVFNVFW", "protein stability index": "0.406 ± 0.014"}
{"sequence": "WQSFRDKLIKGN", "protein stability index": "0.643 ± 0.028"}
{"sequence": "WRCECELASACA", "protein stability index": "0.347 ± 0.037"}
{"sequence": "WRGALHPTPVAA", "protein stability index": "0.249 ± 0.035"}
{"sequence": "WSNICFWCGVWS", "protein stability index": "0.673 ± 0.038"}
{"sequence": "WSWVFVVLRFGR", "protein stability index": "0.405 ± 0.027"}
{"sequence": "WVLFRLPYQFFS", "protein stability index": "0.57 ± 0.038"}
{"sequence": "WWDCAVWVRCGG", "protein stability index": "0.382 ± 0.024"}
{"sequence": "YCAMVAVGVVGG", "protein stability index": "0.329 ± 0.021"}
{"sequence": "YCLSCLAKASLM", "protein stability index": "0.524 ± 0.021"}
{"sequence": "YFCVELSVFGFF", "protein stability index": "0.37 ± 0.046"}
{"sequence": "YFFFLFFLLPPF", "protein stability index": "0.408 ± 0.041"}
{"sequence": "YGHLPLLVLFCV", "protein stability index": "0.352 ± 0.035"}
{"sequence": "YHRKAILMCTFS", "protein stability index": "0.443 ± 0.02"}
{"sequence": "YIFLPIALVFFP", "protein stability index": "0.304 ± 0.037"}
{"sequence": "YLFFHMVVLVVV", "protein stability index": "0.118 ± 0.043"}
{"sequence": "YLGSLQVPVHLF", "protein stability index": "0.639 ± 0.022"}
{"sequence": "YMPKHKIQKLMQ", "protein stability index": "0.639 ± 0.023"}
{"sequence": "YMVSLSFTLVRS", "protein stability index": "0.32 ± 0.022"}
{"sequence": "YSGRYRTLVRCW", "protein stability index": "0.265 ± 0.037"}
{"sequence": "YVCVVSVLLGLL", "protein stability index": "0.24 ± 0.026"}
{"test_system": "Saccharomyces cerevisiae", "experiment": "protein stability index of tFT-peptide fusion (C-terminal peptide) (PSI (0-1 scale)); higher = more stable (slower turnover)", "settings": "genetic background: das1 deletion; temperature: 37 C", "procedure": "as §1"}
{"sequence": "VLCFTSAYHRLV", "protein stability index": "0.724 ± 0.014"}
{"sequence": "VLFLLLFVSRVA", "protein stability index": "0.453 ± 0.016"}
{"sequence": "VLLCFFLGIVGF", "protein stability index": "0.488 ± 0.011"}
{"sequence": "VLLSFVFCGWVR", "protein stability index": "0.516 ± 0.0096"}
{"sequence": "VLLVSVFVATLL", "protein stability index": "0.334 ± 0.0086"}
{"sequence": "VLVVASLRFSFF", "protein stability index": "0.40083 ± 0.00033"}
{"sequence": "VLVVRVLLSDLV", "protein stability index": "0.36571 ± 8.9e-05"}
{"sequence": "VLVVWLGICFGY", "protein stability index": "0.37 ± 0.0092"}
{"sequence": "VMYRGVRISWFL", "protein stability index": "0.504 ± 0.014"}
{"sequence": "VNILFCLFFLLV", "protein stability index": "0.564 ± 0.023"}
{"sequence": "VPQMLVSVCLSN", "protein stability index": "0.423 ± 0.021"}
{"sequence": "VPQQWFAETGRC", "protein stability index": "0.7455 ± 0.0051"}
{"sequence": "VRFPVFFIILFL", "protein stability index": "0.235 ± 0.017"}
{"sequence": "VRGSPNVMWKSQ", "protein stability index": "0.733 ± 0.028"}
{"sequence": "VRLHIAMWLRRC", "protein stability index": "0.414 ± 0.007"}
{"sequence": "VRNKFSYVLRLN", "protein stability index": "0.747 ± 0.0094"}
{"sequence": "VRVLPFCWCIVR", "protein stability index": "0.288 ± 0.005"}
{"sequence": "VSIVLHSVPCGG", "protein stability index": "0.54459 ± 0.0005"}
{"sequence": "VSRVHIRIEGNH", "protein stability index": "0.7218 ± 0.0064"}
{"sequence": "VSVQVRCCPWVG", "protein stability index": "0.728 ± 0.014"}
{"sequence": "VVATLRCLRCSV", "protein stability index": "0.5244 ± 0.0026"}
{"sequence": "VVCFVVCGFYLG", "protein stability index": "0.452 ± 0.011"}
{"sequence": "VVCLLGIFYGFC", "protein stability index": "0.5138 ± 0.00014"}
{"sequence": "VVLCQVCVLWGW", "protein stability index": "0.252 ± 0.01"}
{"sequence": "VVLVLLCIGRLL", "protein stability index": "0.5545 ± 0.0033"}
{"sequence": "VVWIQRTVLSLI", "protein stability index": "0.6 ± 0.011"}
{"sequence": "VWFFGVVLGGLW", "protein stability index": "0.584 ± 0.014"}
{"sequence": "VWRLCFPFALVR", "protein stability index": "0.18 ± 0.023"}
{"sequence": "VWVISLCIGGVG", "protein stability index": "0.399 ± 0.011"}
{"sequence": "VYFRMGFMRVCV", "protein stability index": "0.554 ± 0.0079"}
{"sequence": "VYFRYWLLVVVF", "protein stability index": "0.215 ± 0.0027"}
{"sequence": "VYRILFWFLCFG", "protein stability index": "0.564 ± 0.043"}
{"sequence": "WDPEVVHRLWLN", "protein stability index": "0.766 ± 0.013"}
{"sequence": "WFCCAQRGVIVG", "protein stability index": "0.502 ± 0.0087"}
{"sequence": "WFFRLFFLFFSG", "protein stability index": "0.502 ± 0.019"}
{"sequence": "WFLMVILYTVYG", "protein stability index": "0.304 ± 0.0055"}
{"sequence": "WGCTGGRGRLVC", "protein stability index": "0.7405 ± 0.0052"}
{"sequence": "WGGIASLVASAA", "protein stability index": "0.411 ± 0.0061"}
{"sequence": "WLFASCVFFWSS", "protein stability index": "0.525 ± 0.015"}
{"sequence": "WLSFAIECGMVW", "protein stability index": "0.3286 ± 0.0012"}
{"sequence": "WLTCSLVFNVFW", "protein stability index": "0.482 ± 0.0057"}
{"sequence": "WQSFRDKLIKGN", "protein stability index": "0.754 ± 0.041"}
{"sequence": "WRCECELASACA", "protein stability index": "0.508 ± 0.0082"}
{"sequence": "WRGALHPTPVAA", "protein stability index": "0.419 ± 0.0075"}
{"sequence": "WSNICFWCGVWS", "protein stability index": "0.815 ± 0.033"}
{"sequence": "WSWVFVVLRFGR", "protein stability index": "0.574 ± 0.017"}
{"sequence": "WVLFRLPYQFFS", "protein stability index": "0.737 ± 0.026"}
{"sequence": "WWDCAVWVRCGG", "protein stability index": "0.5379 ± 0.0022"}
{"sequence": "YCAMVAVGVVGG", "protein stability index": "0.503 ± 0.0096"}
{"sequence": "YCLSCLAKASLM", "protein stability index": "0.5686 ± 0.0039"}
{"sequence": "YFCVELSVFGFF", "protein stability index": "0.48 ± 0.018"}
{"sequence": "YFFFLFFLLPPF", "protein stability index": "0.505 ± 0.0069"}
{"sequence": "YGHLPLLVLFCV", "protein stability index": "0.541 ± 0.013"}
{"sequence": "YHRKAILMCTFS", "protein stability index": "0.5702 ± 0.0011"}
{"sequence": "YIFLPIALVFFP", "protein stability index": "0.543 ± 0.022"}
{"sequence": "YLFFHMVVLVVV", "protein stability index": "0.182 ± 0.0041"}
{"sequence": "YLGSLQVPVHLF", "protein stability index": "0.756 ± 0.011"}
{"sequence": "YMPKHKIQKLMQ", "protein stability index": "0.7635 ± 0.0046"}
{"sequence": "YMVSLSFTLVRS", "protein stability index": "0.474 ± 0.033"}
{"sequence": "YSGRYRTLVRCW", "protein stability index": "0.4426 ± 0.0032"}
{"sequence": "YVCVVSVLLGLL", "protein stability index": "0.441 ± 0.0082"}
{"test_system": "Saccharomyces cerevisiae", "experiment": "protein stability index of tFT-peptide fusion (C-terminal peptide) (PSI (0-1 scale)); higher = more stable (slower turnover)", "settings": "genetic background: doa10 deletion; temperature: 30 C", "procedure": "as §1"}
{"sequence": "VLCFTSAYHRLV", "protein stability index": "0.206 ± 0.014"}
{"sequence": "VLFLLLFVSRVA", "protein stability index": "0.203 ± 0.012"}
{"sequence": "VLLCFFLGIVGF", "protein stability index": "0.296 ± 0.0087"}
{"sequence": "VLLSFVFCGWVR", "protein stability index": "0.326 ± 0.013"}
{"sequence": "VLLVSVFVATLL", "protein stability index": "0.113 ± 0.0087"}
{"sequence": "VLVVASLRFSFF", "protein stability index": "0.173 ± 0.019"}
{"sequence": "VLVVRVLLSDLV", "protein stability index": "0.157 ± 0.012"}
{"sequence": "VLVVWLGICFGY", "protein stability index": "0.187 ± 0.0077"}
{"sequence": "VMYRGVRISWFL", "protein stability index": "0.343 ± 0.04"}
{"sequence": "VNILFCLFFLLV", "protein stability index": "0.392 ± 0.025"}
{"sequence": "VPQMLVSVCLSN", "protein stability index": "0.219 ± 0.014"}
{"sequence": "VPQQWFAETGRC", "protein stability index": "0.657 ± 0.038"}
{"sequence": "VRFPVFFIILFL", "protein stability index": "0.241 ± 0.014"}
{"sequence": "VRGSPNVMWKSQ", "protein stability index": "0.194 ± 0.0042"}
